Measurements taken from patent US20260167710A1.

What was measured:
[1] = biological target: ST2-his (human) (UniProt Q01638); assay: BLI (Octet RED384), ST2-his on anti-his sensors, IL-33 100 nM, steady state fit, average of n=2; not at equilibrium, for comparison only
[2] = biological target: ST2-his (human) (UniProt Q01638); assay: BLI (Octet RED384), ST2-his on anti-his sensors, IL-33 pre-mixed with the anti IL-33 control antibody (the complex binds ST2), steady state fit, average of n=2
[3] = biological target: ST2-his (human) (UniProt Q01638); assay: BLI (Octet RED384), ST2-his on anti-his sensors, IL-33 pre-mixed with ten-fold excess of 22A06-458 (the complex binds ST2), steady state fit, average of n=2

Sequence of ST2-his (human) (Q01638 other isoform, or with tags, fused parts or gaps limits assumed): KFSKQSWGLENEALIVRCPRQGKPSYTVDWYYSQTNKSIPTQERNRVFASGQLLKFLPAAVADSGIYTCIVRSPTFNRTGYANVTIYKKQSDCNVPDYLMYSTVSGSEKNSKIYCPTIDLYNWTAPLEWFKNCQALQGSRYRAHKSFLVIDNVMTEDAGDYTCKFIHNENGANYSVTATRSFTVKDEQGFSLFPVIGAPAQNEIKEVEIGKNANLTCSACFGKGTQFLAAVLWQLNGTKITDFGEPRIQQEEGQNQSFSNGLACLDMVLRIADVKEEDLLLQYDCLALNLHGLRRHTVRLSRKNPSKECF

B1: human IL-33 (ligand, not shown: small tags and cut ends)
chain: ITGISPITEYLASLSTYNDQSITFALEDESYEIYVEDLKKDEKKDKVLLSYYESQHPSNESGDGVDGKMLMVTLSPTKDFWLHANNKEHSVELHKCEKPLPDQAFFVLHNMHSNCVSFECKTDPGVFIGVKDNHLALIKVDSSENLCTENILFKLSET
modifications: Biotinylated in Example 2; the site is not stated.
- Kd [1]: 7.2 nM
- Kd [2]: 2.4 nM
- Kd [3]: 11.5 nM
